Measured values published in the nanobody polyreactivity screen of Harvey et al. (2022).

Test: yeast display, Sf9 membrane polyspecificity reagent, FACS + sequencing; frameworks hold sequencing errors
In short: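 A synthetic nanobody library was expressed on Saccharomyces cerevisiae BJ5465 by galactose induction for 36–48 hours. The library was stained for 1 hour at 4 °C with 10% biotinylated, detergent-solubilized Sf9 membrane reagent and enriched with streptavidin microbeads before FACS. Low and high (top ~1%) gates were set on anti-HA fluorescence for expression and streptavidin fluorescence for reagent binding, and each polyreactivity label reflects the gate of origin.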

| Sequence | polyreactivity (PSR sort gate) |
| --- | --- |
| HVQLVESGGGLVQAGRSLRLSCAASGGIFYRYAMGWYRQAPGKEWELVATISRRGGRTYYADSVKGRFTISRDYAKNTVYLQMYSLKPEDTAVDYCAADEWQSGHGLEDDYWGQGTQVTVSS | high polyreactivity |
| HVQLVETGGGFVQAGVCLRLSCAASGSIFRVYVMGWYRPATVKERELVAAISHSSGGTYYADSVKWRFTISRDNAKNTVYLQMYSLKPEDTAVYYCAARSRTRRGVHLQPSSRYGSWGQGTQVTVSS | high polyreactivity |
| HVQLVQSGGGLVQAGGSSRLSCAASGSIFFFNTMGWYSQAPGKERELVAVITSGGSTYYADSVTGRFRISRDNAKNTVYVQMNSLKPEDPAVYYCAARYLPYRRIKYDYWGQGTQVTVSS | low polyreactivity |
| HVQRVESGGGLVQAGASLRLSCAASGGIFSYNAMGWYRQAPGKERELVAAISGTGGSTYYADSVKGRFTISRDNAMNTVYLQMNSLKPEDTAVYYCAADVEYKVFPGDYWGQGPQVTVSS | low polyreactivity |
| KDQIVQSGAGLVQAGGSLRISCAPSGFIFTYNAMGWYIQAPGKEREIVATITWSGGSTYYADSVKGRFTISRDNAKNTVYLQMYSLNPEDTAVYYCAVDYSRHGYWSPVYVFNYWGQGTKVTVSS | low polyreactivity |
| KSGGGLVQAGGSLRLSCAASGRIFLEYAMAWYKQAPGKERELFASISWSGDSTYYADSVKGRFTISRDNAKNTVYLQKNSLKPEDTAVYYCNADGQVGNAVSYDYWGQGTQVTVSS | low polyreactivity |
| KVQLLESGGGLFQAGGSVRLSCAASGSIIFTYAMGWSRQSPGTEREWVAVITWCGGSTYYADSVKGRFTISRDYAKNTVYLQMNSLKPEDTAVYYCAKDSYYYRRDVTVDYWVQGTQVTVSS | low polyreactivity |
| KVQLLQTGRGLVQAGGSLRISCAASGRLFWYSDLVWYRQAPGKESELVAAISQRGGSTYYADSVKGSFTISRDNAKNTVYLQMISLKPEDTAGYYCNADFWWAYYPWEYDYWGQGTLVTVSS | high polyreactivity |
| KVQLVESGGALVQAGGSLRLSCAPSGSIFWNNAMGWYRQAPGKERELVAGISSAGSTNYADSVKGRFTISRDNAKNTVYLQLKSQKPEDTAVYYCAASYFSEYVWLRSYVRYYYWVQGTQVTVSS | low polyreactivity |
| KVQLVESGGGLFQAVGSLRLSCADSGRTLGGYAMGWYRQAPGKDRELVAAITSDTGTNYADSVKGRFTISRDNAKNTVYLQMNSLKPEDTAVYYCAAERFYEYDYWGQGTQVTVSS | low polyreactivity |
| KVQLVESGGGLVQAGASLRLSCAASGSIFATYAMGWYREEPGKERELVAAITSSDGSTNYADSVKGRFTISRDYAKNTVYLQMNSLKPEDTAVYYCATVSPDRTDSDSGFDAGYDYWGQGTQVTLSS | low polyreactivity |
| KVQLVESGGGLVQAGGSLRLSCAASGFTFYGNAMGWYRQAPGKERELVATIRYRGGRTYYADSVKGRFTISRDNAKNTVYLQMNSLKPEDTAVYYCAARSVFLMWGQGTQVTVSS | high polyreactivity |
| KVQLVESGGGLVQAGGSLRLSCAASGITSSYSAMVWYRQAPGKERELVAAITSSGGSTYYADSVKGRFTISRDNAKNTVYLQMNSLKPEVTAVYYCAARIGQYKAHTRINQYYIRYYWGQGTQVSVSS | low polyreactivity |
| KVQLVESGGGLVQAGGSLRLSCAASGLIFYDNMGWYRQAPGKERELVAAISSSGGSTSYADSVKGRFTISRDNAKITVYLQMNSLKPEDTAVYYFAADSYPAYLGFVGFDYWGQGTQVTVSS | low polyreactivity |
| KVQLVESGGGLVQAGGSLRLSCAASGLILWYYAMGWAIQAPGKERELVAAISRYGASTYYADSVKGRFTISRDNAKNTDYLQLNSLKPEDTAVYYCATGSSRYRHQRDYLGQGTQVTVSS | high polyreactivity |
| KVQLVESGGGLVQAGGSLRLSCAASGRIFYSNVMGWYRQATGKERELVAAISGRTGGTYYADSVKGRFTISRDNAKNTVYLQMNSLKPEDTAVYYCAARFIYYYGSGPDDYWGQGTQVTVSS | low polyreactivity |
| KVQLVESGGGLVQAGGSLRLSCAASGRTFESYAMGWYRQAPGKERELVAAITWSGGDTYYADSVKGRFTISRDNAKNTVYLQMNSLKPEDTAVYYCAKEQGLYSVSPYDYWGLGTQVTVSS | low polyreactivity |
| KVQLVESGGGLVQAGGSLRLSCAASGSIFSFYTKGWYRQAPGKERELVAAINWSGSRTYYADSVKGRFTISRDNAKNTVYLQMNSLKPVDTAVYYCAAYLWFYVRYEYWGQGTQVTVSS | high polyreactivity |
| KVQLVESGGGLVQAGGSLRLSCAASGSIFWFYAMGWYRQAPGKEREFVATISRSCGSTYYADSVKGRFTISRDNAKNTDYLQMNSLKPEDTAVYYCIARGPRSHRYDYWGQGTQVNVSS | high polyreactivity |
| KVQLVESGGGLVQAGGSLRLSCAASGSTFYYYAMGWYSQAPGKERELVAAITSSTGSTYYADSVKGRFTISRDNAKNTVYLQMNSLKPVDTAVYYCAATDPYAYYWGQGTKVTVSS | high polyreactivity |
| KVQLVESGGGLVQAGGSLRLSCAASGSTISGYAMGWYRQAPGKERELVAAITIGGGTYYADSVKGRFPISRDNAKNTVYLQMNSLKPEDTGVYYCNAYRRKLWYPTGMYWGQGTQVTVSW | high polyreactivity |
| KVQLVESGGGLVQEGGSLPLSCAASGRTFDYNTMGWYRQAPGKERELVAAISSRGDSTYYADSVKGLFTISRDKAKNTVYLQMNSLNPEDTAVYYCAARYYPGRGFGYGYWGQGTQVTVSS | high polyreactivity |

| Sequence | polyreactivity (PSR sort gate) |
| --- | --- |
| KVQLVESGGGLVQPGGSLRLSCASSGQTFTTNEMGWNRQAHGKERDLLAAISRRGSRTYYADSVKGRFTISRDNAKNSVFLQMNSLKPEDTAVYYCNALTGSFKTYSFDYWGQGTQVTVSS | high polyreactivity |
| KVQLVESGGGLVQSGVSLRLSCAASGYTFEYNAMGWYIQAPGKEREFVSTITASGDSTYYAVSVKGRFTMSRDNAKNTVYFQMNSLKPEDTAVYYCAVDCAYLDDYSFTWDDYWGQGTQVTVSS | low polyreactivity |
| KVQLVESVGGLVQAGGSLRLSCAASGFTFCRNTMGWYRQAPGKEREFVAAITVTGGSTYYADSVKGRFTISRDNAKNTVYLQMNSLKPEDTAVYYCAAGWTSAYVNYDYWGQGTQVTVSS | low polyreactivity |
| KVQLVETGGGLVQAGGSLRLSCAASGRTFWGYAKGWYRQAPGKEREFVAAISCGGRTNYADSVKGRFTISRDNAKNTVYLQLNSLKPEDSAVYYCATVSGYGYYYWGQGTQVTVSS | low polyreactivity |
| KVQVVESGGGLVQAGGSLRLSCAASGSTFYYNAMGWYTQAPGKERELVAAITGSGTGTNYADSVKGRFTISRDNAKNTVYLQMNSLKPEDTAVYYCAADYVWRGDPINSYLSWYVYWGQGTQVTVSS | low polyreactivity |
| LVQHVESGGGLVQAGGSLRLNCAASGRTFKPYAMGWYIQSPGKERELVAAISTRGGSTYYADSVKGRFTISRDNAKNSVFLQMNSLKPEDTALFYCAATQPGRDYDYWGQGTQVTVSS | low polyreactivity |
| LVQLQESGGCLVLAGGGLRLSCAASGNIFTYVIMGWYRQPPGKERELVAAITYGTITNYADSVKGPFTISRDNAKNTVYMQMNCLKPEDTAVYHCAVQSPRIEPRLYYWGQGTQVTVSS | high polyreactivity |
| LVQLQESGGGLVQAGGSLRLSCAASGTNSPGGYMGWYRKAPGKERELVASINVGGSTNYADSVKGRFTISRDNAKNTVYLQMNSLKPEDNAVYFCAVWGRNRLQLSYWGQGTQVTVSS | low polyreactivity |
| LVQLQESGGGLVQPGGRLRLSCAASGTISPGGYMGWYRQAPGKERELVASINVGGRTNYADSVKGRFTISRDNAKNTVYLQMNSLKPEDNAVSYCAVWGRNRLQLSYWGQGTQVTVSS | low polyreactivity |
| LVQLVESGGGLVQAGGSLRLSCAASGAIFYQDAQGCYRQAPGKERELVAAISKNGRSTYYADSVKGRFTISRDNAKNTVYLQMNSLKPEATAVYYCAARVLKGYYWGQGTQVTVSS | high polyreactivity |
| LVQLVESGGGLVQAGGSLRLSCAASGRIIPPNAMGWYRQAPGTERELVATITWGVGSTYYADSVKGRFTISRDNAKNTVYLQMNSLKPEDTAVYYCYARRFRPYGFYYWGQGTQVTVSS | high polyreactivity |
| LVQLVESGGGLVQAGGSLRLSCAASGRTFPGYAMGGYSQAPGKERELVASINFRGGGTYADSVKGRFTISRDNAKNTVYLLMNSLKPEDTAVYYCAAEYFWGKRRFGYWGQGTQVTVSS | high polyreactivity |
| LVQLVESGGGLVQAGGSLRLSCAASGSIFPPYAMGWYRQAPGKERELVAARSNGGSTNYAYAVKGRFTISRDNPNYTVYLQMNSLIPEDTAVYYCVARQYYLGWFPYWRIFDYWGQGTQVTVSS | high polyreactivity |
| LVQLVESGGGLVQAGGSLRLSCAASGSIFSVYAMGWYRQAPGKERELVAAITWRGGNTYYADSVKGRFTLSRDNAKNTVYLQMNSLKPEDTAVYYCNRVYRQRLGRDYWGQGTQVTVSS | high polyreactivity |
| LVQLVESGGGLVQAGGSLRLSCAASGSTFIPYAMGWYRQAPGKERELVAAIRGGDGSTYYADSVKGRFTISRDNAKNTVYLQMNSLKPEDTAVYYCAADTVITAYFYRFWRYNYWGQGTQVTVSS | low polyreactivity |
| LVQLVESGGGLVQAGGSLRVSCAASGLIIYDNAMGGYRQAPGKEREVVATISSGGRTYYADSVKGRFTISRDNAKNTVYLQMNSLKPEDTAVYYCAVDPGYSWYAQYDYWGQGTQVTVSS | low polyreactivity |
| LVQVVESGGGLVQAGCSLRLSCAASGRTFGVYAMGWYRQAPGKEWELVASISRSGGSTYYADSLKGRFTISRDNAKNTVYLQMNSLIPEDTAVYYCAAVYKRGMDYWGQGTQVTVSS | high polyreactivity |
| PLQLVESGGGLVQAGGSLRLSCAASGRIFGTYAMGWYRQAPGKERELVAAITLSDGSTYYADSVKGRFTISRDNAKNTVYLEMNSLIPDDTAVYYCAAVVDRFHPGLYEYWGQGTQVTVSS | low polyreactivity |
| PLQLVESGGGLVQAGGSLRLSCAASGTIFVQTDRGWYRQAPGKERELVAAISSGSSTNYADSVNGRFTISRDNAKNTVYLQMNSLKPEDSAAYYCAVTSPYSQGYSYWGADSRDYWGQGTQVTVSS | low polyreactivity |
| PVQIVESGGVLDQAGGSLRLSCAASGSIFTRNTMGWYRQAPRKERELVAAISQRGGSTYYADSVKGRFTISRDNAKNTVYLQMNSLIPEDTAVYFCAADFSFGYYWYGYWGQGTQVTVSS | high polyreactivity |
| PVQLQESGGGLMQAGGNLRLSCAASGYISTHYDMDWYRQAPGKERELVARIDDGAITNYADSVKGRFTISRDNAKNTVYLQMNSLKPEDTAVYYCAVYSGDDYYHDYWGQGTQVTVSS | low polyreactivity |
